Measured values published in the supplement of paper PMC7877785.
± gives the uncertainty stated by the source.

Experiment: self-splicing fitness, log relative to wild type (ln ratio); higher = more splicing; Tetrahymena group I intron in knt gene, E. coli kanamycin selection, DiMSum; sequences stand for … in CUCUCU…GGAGGGAAAAGUUAUCAGGCAUGCACCUGGUAGCUAGUCUUUAAACCAAUAGAUUGCAUCGGUUUAAAAGGCAAGACCGUCAAAUUGCGGGAAAGGGGUCAACAGCCGUUCAGUACCAAGUCUCAGGGGAAACUUUGAGAUGGCCUUGCAAAGGGUAUGGUAAUAAGCUGACGGACAUGGUCCUAACCACGCAGCCAAGUCCUAAGUCAACAGAUCUUCUGUUGAUAUGGAUGCAGUUCACAGACUAAAUGUCGGUCGGGGAAGAUGUAUUCUUCUCAUAAGAUAUAGUCGGACCUCUCCUUAAUGGGAGCUAGCGGAUGAAGUGAUGCAACACUGGAGCCGCUGGGAACUAAUUUGUAUGCGAAAGUAUAUUGAUUAGUUUUGGAGUACUCGUGGUCG
In short: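 Pooled colonies went to amplicon sequencing on an Illumina HiSeq 2500 after six replicate transformations. The plates were LB agar with 100 μg/mL carbenicillin, 50 μM IPTG and 0.2% rhamnose, with or without 25 μg/mL kanamycin, incubated overnight at 37°C or 30°C. The E. coli BL21(DE3) library had all eight P1ex-region intron nucleotides randomised, the intron placed in the knt kanamycin-resistance gene on pET-22b(+). DiMSum fitness is the error-weighted combination of replicate fold changes, kanamycin against none, normalised to wild type.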

Sequence | self-splicing fitness (ln) (30 °C) | self-splicing fitness (ln) (37 °C)
UGCAAGCAAUAUUACGCUCC | -0.565 ± 0.2 | -1.37 ± 0.34
UGCAAGCAAUAUUACGGACC | -0.803 ± 0.088 | -1.12 ± 0.16
UGCAAGCAAUAUUACGGAGA | -2.45 ± 0.21 | -3.01 ± 0.29
UGCAAGCAAUAUUACGGAGU | -2.83 ± 0.14 | -3.18 ± 0.16
UGCAAGCAAUAUUACGGCUA | 0.00387 ± 0.089 | -0.123 ± 0.1
UGCAAGCAAUAUUACGGGAA | -2.94 ± 0.16 | -1.33 ± 0.12
UGCAAGCAAUAUUACGGGCU | -1.12 ± 0.11 | -1.48 ± 0.14
UGCAAGCAAUAUUACGGGUG | -0.825 ± 0.051 | -0.33 ± 0.065
UGCAAGCAAUAUUACGGUAG | -0.738 ± 0.073 | -0.376 ± 0.081
UGCAAGCAAUAUUACGGUGC | -3.59 ± 0.16 | -2.49 ± 0.19
UGCAAGCAAUAUUACGUGAA | -2.26 ± 0.1 | -1.03 ± 0.11
UGCAAGCAAUAUUACGUGCU | -2.02 ± 0.1 | -0.559 ± 0.094
UGCAAGCAAUAUUACGUUCG | -0.427 ± 0.048 | -0.226 ± 0.067
UGCAAGCAAUAUUACGUUUG | -4.16 ± 0.33 | -2.87 ± 0.33
UGCCAGCAAUAUUACGAACU | -2.14 ± 0.11 | -0.854 ± 0.13
UGCCAGCAAUAUUACGAAUG | -1.3 ± 0.18 | 0.0957 ± 0.17
UGCCAGCAAUAUUACGACCC | -3.56 ± 0.24 | -1.42 ± 0.21
UGCCAGCAAUAUUACGAGUU | -2.53 ± 0.17 | -0.56 ± 0.14
UGCCAGCAAUAUUACGAUUG | -1.63 ± 0.078 | -0.196 ± 0.086
UGCCAGCAAUAUUACGCAGA | -2.81 ± 0.2 | -1.66 ± 0.14
UGCCAGCAAUAUUACGCAUU | -3.81 ± 0.46 | -1.24 ± 0.21
UGCCAGCAAUAUUACGCCAG | -3.29 ± 0.18 | -2.39 ± 0.27
UGCCAGCAAUAUUACGCCGG | -4.03 ± 0.21 | -3.05 ± 0.25
UGCCAGCAAUAUUACGCCGU | -3.97 ± 0.39 | -2.32 ± 0.32
UGCCAGCAAUAUUACGCCUG | -2.1 ± 0.16 | -0.0397 ± 0.12

Sequence | self-splicing fitness (ln) (30 °C) | self-splicing fitness (ln) (37 °C)
UGCCAGCAAUAUUACGCGGA | -2.24 ± 0.1 | -1.32 ± 0.094
UGCCAGCAAUAUUACGCUCG | -0.839 ± 0.086 | -0.622 ± 0.14
UGCCAGCAAUAUUACGGCAC | -2.9 ± 0.33 | -2.56 ± 0.3
UGCCAGCAAUAUUACGGCGA | -0.122 ± 0.072 | 0.211 ± 0.093
UGCCAGCAAUAUUACGGGAG | -2.75 ± 0.11 | -0.763 ± 0.1
UGCCAGCAAUAUUACGGGUG | -2.99 ± 0.13 | -2.98 ± 0.17
UGCCAGCAAUAUUACGGUAA | -1.15 ± 0.055 | -0.9 ± 0.059
UGCCAGCAAUAUUACGGUAC |  | -2.89 ± 0.47
UGCCAGCAAUAUUACGUAAC | -2.39 ± 0.18 | -2.36 ± 0.2
UGCCAGCAAUAUUACGUACA | -0.269 ± 0.076 | 0.081 ± 0.089
UGCCAGCAAUAUUACGUACG | -0.444 ± 0.061 | 0.435 ± 0.084
UGCCAGCAAUAUUACGUCCA | -0.0851 ± 0.076 | 0.335 ± 0.09
UGCCAGCAAUAUUACGUCGG | -4.72 ± 0.41 | -2.68 ± 0.25
UGCCAGCAAUAUUACGUGAU | -2.59 ± 0.14 | -1.6 ± 0.099
UGCCAGCAAUAUUACGUUAA | -2.48 ± 0.15 | -0.729 ± 0.095
UGCCAGCAAUAUUACGUUUU | -3.79 ± 0.18 | -2.56 ± 0.2
UGCGAGCAAUAUUACGAAAG | -2.87 ± 0.29 | -2.87 ± 0.43
UGCGAGCAAUAUUACGAAGG | -1.75 ± 0.2 | -1.91 ± 0.44
UGCGAGCAAUAUUACGACGU | -2.92 ± 0.25 | -0.731 ± 0.17
UGCGAGCAAUAUUACGACUC | -2.71 ± 0.27 | -2.25 ± 0.25
UGCGAGCAAUAUUACGCAUU | -5.15 ± 0.34 | -3.1 ± 0.23
UGCGAGCAAUAUUACGCGGG | -2.61 ± 0.3 | 
UGCGAGCAAUAUUACGCUGU | -3.76 ± 0.21 | -2.24 ± 0.31
UGCGAGCAAUAUUACGGACC | -2.33 ± 0.19 | 
UGCGAGCAAUAUUACGGCAG | -1.33 ± 0.15 | -1.59 ± 0.21

Sequence | self-splicing fitness (ln) (30 °C) | self-splicing fitness (ln) (37 °C)
UGCGAGCAAUAUUACGGCUG | -1.04 ± 0.1 | -0.349 ± 0.15
UGCGAGCAAUAUUACGGGGU | -2.77 ± 0.2 | -3.12 ± 0.35
UGCGAGCAAUAUUACGUGCA | -2.46 ± 0.2 | -1.35 ± 0.21
UGCGAGCAAUAUUACGUUAG | -2.68 ± 0.27 | -2.01 ± 0.33
UGCUAGCAAUAUUACGAACG | -0.171 ± 0.097 | 0.803 ± 0.12
UGCUAGCAAUAUUACGACUU | -0.801 ± 0.2 | -0.152 ± 0.17
UGCUAGCAAUAUUACGAGAC | -3.12 ± 0.35 | -2.11 ± 0.36
UGCUAGCAAUAUUACGAGGA | -2.99 ± 0.26 | -1.62 ± 0.17
UGCUAGCAAUAUUACGAGUG | -1.98 ± 0.12 | -1.08 ± 0.11
UGCUAGCAAUAUUACGAUAG | -2.49 ± 0.1 | -0.62 ± 0.1
UGCUAGCAAUAUUACGAUUA | -0.493 ± 0.095 | -0.286 ± 0.096
UGCUAGCAAUAUUACGCAGA | -4.03 ± 0.31 | -2.26 ± 0.17
UGCUAGCAAUAUUACGCAUA | -2.58 ± 0.18 | -1.37 ± 0.14
UGCUAGCAAUAUUACGCCUA | -0.454 ± 0.15 | -0.0492 ± 0.15
UGCUAGCAAUAUUACGCUCG | -1.2 ± 0.14 | -0.909 ± 0.17
UGCUAGCAAUAUUACGCUUG | -3.74 ± 0.21 | -0.96 ± 0.13
UGCUAGCAAUAUUACGGAAA | -2.19 ± 0.27 | -2.19 ± 0.31
UGCUAGCAAUAUUACGGACA | -0.668 ± 0.098 | 0.41 ± 0.12
UGCUAGCAAUAUUACGGAGA |  | -2 ± 0.22
UGCUAGCAAUAUUACGGAUU | -1.7 ± 0.14 | -2.02 ± 0.13
UGCUAGCAAUAUUACGGCCU | 0.151 ± 0.14 | 0.383 ± 0.16
UGCUAGCAAUAUUACGGCUG | -0.317 ± 0.15 | -0.46 ± 0.18
UGCUAGCAAUAUUACGGGAC | -2.52 ± 0.2 | -1.92 ± 0.18
UGCUAGCAAUAUUACGGUAA | -1.03 ± 0.15 | -1.47 ± 0.12
UGCUAGCAAUAUUACGUCCU | -1.19 ± 0.12 | -0.143 ± 0.14

Sequence | self-splicing fitness (ln) (30 °C) | self-splicing fitness (ln) (37 °C)
UGCUAGCAAUAUUACGUCGC | -3.37 ± 0.2 | -2.65 ± 0.41
UGCUAGCAAUAUUACGUGAC | -3.39 ± 0.35 | -2.56 ± 0.41
UGCUAGCAAUAUUACGUGUC | -3.7 ± 0.42 | -2.72 ± 0.38
UGCUAGCAAUAUUACGUUCA | -0.255 ± 0.076 | 0.0245 ± 0.12
UGGAAGCAAUAUUACGAACU | 0.00939 ± 0.14 | -0.029 ± 0.13
UGGAAGCAAUAUUACGACCC | -0.0757 ± 0.24 | -0.147 ± 0.25
UGGAAGCAAUAUUACGACGU | -1.62 ± 0.15 | -0.761 ± 0.2
UGGAAGCAAUAUUACGAUAC | -3.37 ± 0.49 | -2.54 ± 0.48
UGGAAGCAAUAUUACGCCGA | -1.53 ± 0.26 | -0.201 ± 0.27
UGGAAGCAAUAUUACGCCUU | -2.28 ± 0.31 | 
UGGAAGCAAUAUUACGCGGG | -3.32 ± 0.24 | -1.29 ± 0.22
UGGAAGCAAUAUUACGCUAG | -0.433 ± 0.1 | -0.523 ± 0.17
UGGAAGCAAUAUUACGCUCU |  | -1.45 ± 0.32
UGGAAGCAAUAUUACGGCGA | -0.779 ± 0.12 | -0.28 ± 0.16
UGGAAGCAAUAUUACGGGCG | -0.122 ± 0.1 | -0.0506 ± 0.11
UGGAAGCAAUAUUACGGGGG | -2.52 ± 0.32 | -2.89 ± 0.49
UGGAAGCAAUAUUACGGGUC |  | -3.04 ± 0.38
UGGAAGCAAUAUUACGGUUG | -1.46 ± 0.1 | -0.621 ± 0.13
UGGAAGCAAUAUUACGUCUA | -0.281 ± 0.15 | -0.741 ± 0.18
UGGAAGCAAUAUUACGUGCU | -2.92 ± 0.19 | -1.7 ± 0.17
UGGAAGCAAUAUUACGUGUA | -2.12 ± 0.099 | -0.482 ± 0.1
UGGAAGCAAUAUUACGUGUU | -3.39 ± 0.16 | -2.7 ± 0.17
